Laboratory results published in paper PMC2937989 (The Journal of Biological Chemistry, 2010).

B1: chicken vinculin domain 1 (Vd1; residues 1–258) (domain or fragment, UniProt P12003 1-258, looked up)
chain: MPVFHTRTIESILEPVAQQISHLVIMHEEGEVDGKAIPDLTAPVSAVQAAVSNLVRVGKETVQTTEDQILKRDMPPAFIKVENACTKLVRAAQMLQADPYSVPARDYLIDGSRGILSGTSDLLLTFDEAEVRKIIRVCKGILEYLTVAEVVETMEDLVTYTKNLGPGMTKMAKMIDERQQELTHQEHRVMLVNSMNTVKELLPVLISAMKIFVTTKNTKSQGIEEALKNRNFTVEKMSAEINEIIRVLQLTSWDEDAW

Legend:
[1] = target: talin(1359–1659), talin 9-helix module (mouse, UniProt P26039 1359-1659); assay: SEC
Chain of talin(1359–1659), talin 9-helix module (P26039 1359-1659): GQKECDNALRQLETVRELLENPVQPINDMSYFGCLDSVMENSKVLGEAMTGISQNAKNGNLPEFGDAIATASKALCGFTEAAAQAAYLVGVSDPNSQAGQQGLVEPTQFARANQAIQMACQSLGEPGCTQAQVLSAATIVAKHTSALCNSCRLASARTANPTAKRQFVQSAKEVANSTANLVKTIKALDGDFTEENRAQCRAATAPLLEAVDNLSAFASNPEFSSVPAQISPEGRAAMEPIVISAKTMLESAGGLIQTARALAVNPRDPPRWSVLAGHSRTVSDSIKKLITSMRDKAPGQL

[2] = target: B1; assay: SEC

binding result [1] | binding result [2] | Binder
binds | – | B1
– | binds | talin 4-helix bundle (residues 1458–1584) (domain or fragment, mouse, UniProt P26039 1458-1584, looked up) QQGLVEPTQFARANQAIQMACQSLGEPGCTQAQVLSAATIVAKHTSALCNSCRLASARTANPTAKRQFVQSAKEVANSTANLVKTIKALDGDFTEENRAQCRAATAPLLEAVDNLSAFASNPEFSSV
